Results as given in patent US12466878 (IMMATICS BIOTECHNOLOGIES, dated 2025).

Molecular target: T1, HLA-A*02:01 (human)
T1 construct: the format of the assay is not described
Assay: ELISA-based peptide-MHC binding assay (FIG. 5)

Binder: KIQEILTQV [IGF2BP3-001 peptide KIQEILTQV (SEQ ID NO: 1)]
- binding result: binds
